Patent US20250163164A1 (LANOVA MEDICINES DEVELOPMENT, published 2025)
Changes are numbered by the printed parent chain. Where “and” joins values, the source holds several entries; their conditions need not be identical. Identical values can stand only once.

T1: human interleukin 13 receptor subunit alpha 2 (IL-13RA2) (human, UniProt Q14627 27-380)
T1 construct: whole, on cells; also called IL-13Rα2; CD213A2
T1 sequence (looked up): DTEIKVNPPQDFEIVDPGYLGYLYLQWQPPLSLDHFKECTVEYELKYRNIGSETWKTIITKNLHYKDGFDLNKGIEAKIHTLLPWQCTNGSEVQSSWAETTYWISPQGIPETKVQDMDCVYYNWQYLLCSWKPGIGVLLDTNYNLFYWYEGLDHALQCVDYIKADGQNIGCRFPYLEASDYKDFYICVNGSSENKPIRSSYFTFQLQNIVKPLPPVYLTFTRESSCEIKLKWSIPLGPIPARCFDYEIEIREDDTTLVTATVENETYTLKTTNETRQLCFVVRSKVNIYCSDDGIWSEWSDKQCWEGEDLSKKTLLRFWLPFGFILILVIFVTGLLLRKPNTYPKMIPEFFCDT

B1: xi57F8H3F1 hIgG1 (antibody, V domains shown)
VH: QVQLQQPGAELVRPGASVKLSCKASGYTFTNYWMNWIKQRPEQGLEWIGRIDPYETETHYNQKFRDRAILTVDKSSSTAFMQLSGLTSEDSAVYYCARGYGHYYGVDYWGQGTSVTVSS
VL: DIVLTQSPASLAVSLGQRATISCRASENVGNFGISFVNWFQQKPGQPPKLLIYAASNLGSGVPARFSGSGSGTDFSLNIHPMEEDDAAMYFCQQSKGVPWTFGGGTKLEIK
B2: xi54A4F7 hIgG1 (antibody, V domains shown)
VH: EVKLVESGGGLVKPGGSLKLSCAASGFTFSSYGMSWVRQTPEKRLEWVATISGGGSYTYYPDSVKGRFTISRDNAKNNLYLQMSSLRSEDTALYYCARRDLRSAMDHWGQGTSVTVSS
VL: DIVMTQSQKFMSTSVGDRVSVTCRASQNVDINVAWYQQKPGQSPKSLIYSASYRYSGVPDRFTGSGSGTDFTLTISNVQSEDLAEYFCQQYNSYPLTFGGGTKLEIR
B3: xi62A8D8 hIgG1 (antibody, V domains shown)
VH: B2 VH with H107Y
VL: B2 VL with R24K, S46A, Y86F, S93N, R107K
B4: xi73A11E2 hIgG1 (antibody, V domains shown)
VH: B2 VH with K76R, S84N, H107Y
VL: B2 VL with R24K, S46A, Y86F, R107K
B5: xi74B5E4 hIgG1 (antibody, V domains shown)
VH: B2 VH with K19R, S31T, H107Y
VL: B2 VL with R24K, S46A, S93T, R107K
B6: xi72B4H4 hIgG1 (antibody, V domains shown)
VH: QVQLQQPGAERVRPGASVKLSCKASGYTFTNYWMNWVKQRPEQGLEWIGRIDPYAGETHYNQKFKDKAILTVDKSSSTAYMQLRSLTSEDSAVYYCARGYGDSYGMDHWGQGTSVTVSS
VL: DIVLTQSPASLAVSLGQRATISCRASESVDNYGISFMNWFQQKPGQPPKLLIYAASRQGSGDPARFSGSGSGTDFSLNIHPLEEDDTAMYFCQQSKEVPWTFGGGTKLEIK
B7: xi61H8C1 hIgG1 (antibody, V domains shown)
VH: QVQLQQSGAELARPGASVMLSCKASGYTFTSYWTQWIKQRPGQGLEGIGAIYPGDDDTSYNQKFKGKATLTADKSSSTAYMQLNSLTSEDSAVYYCARGATLLRPFPYWGQGTLVTVSA
VL: DIVMTQSHKFMSTSVGDRVSITCKASQDVSTAVAWYQQKPGQSPKLLIYSASYRYTGVPDRFTGSGSGTDFTFTISSVQAEDLAVYSCQQHYSIPPTFGGGTKLEIK
B8: xi62F6A8 hIgG1 (antibody, V domains shown)
VH: B7 VH with L4I, S31D, T34M, D56G, S59A, K65R, T87A, Y95F, Y108F
VL: B7 VL with T56A

Biological target: T1, human interleukin 13 receptor subunit …
Assay: FACS on A375 cells
Procedure: (§1) A375 cells that endogenously expressed IL-13RA2, were harvested from flasks. 100 μl of 1×10⁶ cells/ml of cells were incubated with primary chimeric antibodies in 3-fold serial dilutions starting from 300 nM to 0.002 nM for 30 minutes on ice. After being washed with 200 μl of FACS buffer twice, cells were incubated with secondary antibody for 30 minutes on ice. Cells were washed with 200 μl of FACS buffer twice and analyzed by FACS.
As shown in FIG. 3 and Table 4, the chimeric antibodies bound to human IL-13RA2 at different EC50.

Binder | EC50 | Top (MFI)
B1 | 0.99 nM | 17600 MFI
B2 | 0.63 nM | 18000 MFI
B3 | 0.82 nM | 17300 MFI
B4 | 0.65 nM | 18000 MFI
B5 | 0.7 nM | 18100 MFI
B6 | 0.85 nM | 16900 MFI
B7 | 0.47 nM | 15600 MFI
B8 | 0.48 nM | 15800 MFI

Biological target: T1, human interleukin 13 receptor subunit …
Assay: FACS on A375 cells
Remark: another data set of the same source
Procedure: as §1, with “humanized” for “chimeric”, “4-fold” for “3-fold”, “200” for “300”, “0.003” for “0.002”

Binder | EC50
B1 | 0.33 nM and 0.41 nM
B4 | 0.26 nM and 0.359 nM and 0.45 nM
B6 | 0.36 nM and 0.581 nM
B7 | 0.16 nM

Biological target: T1, human interleukin 13 receptor subunit …
Assay: cell-based or functional assay

Binder | internalization EC50 (pHAb dye), A375 cells | internalization EC50 (pHAb dye), CHO-K1/H_IL-13RA2 cells | internalization EC50 (pHAb dye), HEK-293/H IL-13RA2 cells | internalization Top (MFI), A375 cells | internalization Top (MFI), CHO-K1/H_IL-13RA2 cells | internalization Top (MFI), HEK-293/H IL-13RA2 cells
B1 | 0.74 nM | 2.37 nM | 2.42 nM | 2720 MFI | 19200 MFI | 26000 MFI
B2 | 0.66 nM | 1.42 nM | 1.65 nM | 5500 MFI | 18000 MFI | 22800 MFI
B3 | 1 nM | 1.58 nM | 1.88 nM | 5550 MFI | 17200 MFI | 23300 MFI
B4 | 0.77 nM | 1.52 nM | 1.98 nM | 4310 MFI | 17900 MFI | 23500 MFI
B5 | ~0.437 nM | 0.91 nM | 1.31 nM | 5170 MFI | 17700 MFI | 21600 MFI
B6 | 1.06 nM | 2.92 nM | 2.18 nM | 5260 MFI | 18700 MFI | 19500 MFI
B7 | ~0.441 nM | 1.02 nM | 1.49 nM | 3820 MFI | 16900 MFI | 24700 MFI
B8 | ~0.447 nM | 1.17 nM | 1.73 nM | 4530 MFI | 15900 MFI | 22300 MFI
